# Source: patent US20100098708A1 (AstraZeneca / MedImmune, published 2010)
# Several values for one entry are separate records, joined by “and”; a condition that tells them apart may be missing. Equal values may be shown once.
# Target: Bac-F (respiratory syncytial virus)
# Assay: BIAcore, (1:1)
# Chain of Bac-F (respiratory syncytial virus) (P03420 26-524): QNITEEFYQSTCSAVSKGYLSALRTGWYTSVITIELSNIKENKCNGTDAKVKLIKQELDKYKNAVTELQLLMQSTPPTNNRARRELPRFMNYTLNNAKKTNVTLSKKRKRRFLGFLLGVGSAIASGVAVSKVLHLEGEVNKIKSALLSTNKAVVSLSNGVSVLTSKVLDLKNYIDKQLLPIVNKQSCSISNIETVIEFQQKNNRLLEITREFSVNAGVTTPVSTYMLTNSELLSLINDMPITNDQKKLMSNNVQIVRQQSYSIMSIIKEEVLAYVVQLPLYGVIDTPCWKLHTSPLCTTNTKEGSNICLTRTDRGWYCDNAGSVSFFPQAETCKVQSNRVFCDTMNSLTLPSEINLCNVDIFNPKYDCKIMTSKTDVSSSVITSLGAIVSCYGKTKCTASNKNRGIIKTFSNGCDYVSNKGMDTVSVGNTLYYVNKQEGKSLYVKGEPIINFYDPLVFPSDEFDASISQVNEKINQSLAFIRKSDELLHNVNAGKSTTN
Binder,Kd,koff,kon,number in parentheses after KD (ratio to palivizumab = 1)
"A4B4 IgG (antibody, V domains shown, IgG1/kappa) VH: QVTLRESGPALVKPTQTLTLTCTFSGFSLSTAGMSVGWIRQPPGKALEWLADIWWDDKKHYNPSLKDRLTISKDTSKNQVVLKVTNMDPADTATYYCARDMIFNFYFDVWGQGTTVTVSS VL: DIQMTQSPSTLSASVGDRVTITCSASSRVGYMHWYQQKPGKAPKLLIYDTFFLDSGVPSRFSGSGSGTEFTLTISSLQPDDFATYYCFQGSGYPFTFGGGTKVEIKR",0.02 nM,1.06e-05 s⁻¹,434000 M⁻¹ s⁻¹,195 fold

# Target: F protein of RSV Long strain on infected HEp-2 cells (respiratory syncytial virus Long strain, UniProt P12568 26-574)
# Sequence (P12568 26-574): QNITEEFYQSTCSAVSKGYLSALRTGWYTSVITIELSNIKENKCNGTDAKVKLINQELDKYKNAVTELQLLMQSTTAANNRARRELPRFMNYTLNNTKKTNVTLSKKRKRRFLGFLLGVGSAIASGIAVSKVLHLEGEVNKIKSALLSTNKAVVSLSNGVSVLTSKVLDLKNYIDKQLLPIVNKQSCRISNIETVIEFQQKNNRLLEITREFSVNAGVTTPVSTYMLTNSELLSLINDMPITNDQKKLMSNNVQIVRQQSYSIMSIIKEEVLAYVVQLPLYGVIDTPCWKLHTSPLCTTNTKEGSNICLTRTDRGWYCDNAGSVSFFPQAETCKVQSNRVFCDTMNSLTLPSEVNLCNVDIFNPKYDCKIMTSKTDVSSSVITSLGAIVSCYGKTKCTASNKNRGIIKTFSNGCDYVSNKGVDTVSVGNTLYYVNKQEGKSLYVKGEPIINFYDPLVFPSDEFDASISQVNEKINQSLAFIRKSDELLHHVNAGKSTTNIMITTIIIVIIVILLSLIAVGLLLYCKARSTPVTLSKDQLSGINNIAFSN
# Assay: cell-based or functional assay
row,Binder,RSV microneutralization IC50
1,"P11d4 Fab (Fab, V domains shown, Fab) VH: QVTLRESGPALVKPTQTLTLTCTFSGFSLSTPGMSVGWIRQPPGKALEWLADIWWDGKKHYNPSLKDRLTISKDTSKNQVVLKVTNMDPADTATYYCARDMIFNWYFDVWGQGTTVTVSS VL: DIQMTQSPSTLSASVGDRVTITCSPSSRVGYMHWYQQKPGKAPKLLIYDTMRLASGVPSRFSGSGSGTEFTLTISSLQPDDFATYYCFQGSGYPFTFGGGTKVEIK",0.292 µg/ml and 5.84 nM

# Target: RSV F protein (immobilised antigen of Example 6.1) (respiratory syncytial virus)
# Sequence (P03420 26-524): as the sequence (P03420 26-524) above
# Assay: BIAcore
Binder,koff,kon
"P11d4 Fab (Fab, V domains shown, Fab) VH: QVTLRESGPALVKPTQTLTLTCTFSGFSLSTPGMSVGWIRQPPGKALEWLADIWWDGKKHYNPSLKDRLTISKDTSKNQVVLKVTNMDPADTATYYCARDMIFNWYFDVWGQGTTVTVSS VL: DIQMTQSPSTLSASVGDRVTITCSPSSRVGYMHWYQQKPGKAPKLLIYDTMRLASGVPSRFSGSGSGTEFTLTISSLQPDDFATYYCFQGSGYPFTFGGGTKVEIK",0.000717 s⁻¹,570000 M⁻¹ s⁻¹ and 572000 M⁻¹ s⁻¹
"P12f2 Fab (Fab, V domains shown, Fab) VH: QVTLRESGPALVKPTQTLTLTCTFSGFSLSTPGMSVGWIRQPPGKALEWLADIWWDDKKHYNPSLKDRLTISKDTSKNQVVLKVTNMDPADTATYYCARDMIFNFYFDVWGQGTTVTVSS VL: DIQMTQSPSTLSASVGDRVTITCSLSSRVGYMHWYQQKPGKAPKLLIYDTFYLSSGVPSRFSGSGSGTEFTLTISSLQPDDFATYYCFQGSGYPFTFGGGTKVEIK",0.000282 s⁻¹,663000 M⁻¹ s⁻¹
"A13c4 Fab (Fab, V domains shown, Fab) VH: QVTLRESGPALVKPTQTLTLTCTFSGFSLSTAGMSVGWIRQPPGKALEWLADIWWDGKKSYNPSLKDRLTISKDTSKNQVVLKVTNMDPADTATYYCARDMIFNFYFDVWGQGTTVTVSS VL: DIQMTQSPSTLSASVGDRVTITCSLSSRVGYMHWYQQKPGKAPKLLIYDTMYQSSGVPSRFSGSGSGTEFTLTISSLQPDDFATYYCFQGSGYPFTFGGGTKVEIK",0.00028 s⁻¹,781000 M⁻¹ s⁻¹ and 735000 M⁻¹ s⁻¹
"A12a6 Fab (Fab, V domains shown, Fab) VH: QVTLRESGPALVKPTQTLTLTCTFSGFSLSTAGMSVGWIRQPPGKALEWLADIWWDGKKDYNPSLKDRLTISKDTSKNQVVLKVTNMDPADTATYYCARDMIFNFYFDVWGQGTTVTVSS VL: DIQMTQSPSTLSASVGDRVTITCSASSRVGYMHWYQQKPGKAPKLLIYDTFKLSSGVPSRFSGSGSGTEFTLTISSLQPDDFATYYCFQGSGYPFTFGGGTKVEIK",0.00023 s⁻¹,743000 M⁻¹ s⁻¹
"A1e9 Fab (Fab, V domains shown, Fab; also called Ale9) VH: QVTLRESGPALVKPTQTLTLTCTFSGFSLSTAGMSVGWIRQPPGKALEWLADIWWDGKKHYNPSLKDRLTISKDTSKNQVVLKVTNMDPADTATYYCARDMIFNWYFDVWGQGTTVTVSS VL: DIQMTQSPSTLSASVGDRVTITCSLSSRVGYMHWYQQKPGKAPKLLIYDTFKLSSGVPSRFSGSGSGTEFTLTISSLQPDDFATYYCFQGSGYPFTFGGGTKVEIK",0.000453 s⁻¹,790000 M⁻¹ s⁻¹
"A13a11 Fab (Fab, V domains shown, Fab) VH: QVTLRESGPALVKPTQTLTLTCTFSGFSLSTAGMSVGWIRQPPGKALEWLADIWWDDKKHYNPSLKDRLTISKDTSKNQVVLKVTNMDPADTATYYCARDMIFNWYFDVWGQGTTVTVSS VL: DIQMTQSPSTLSASVGDRVTITCSPSSRVGYMHWYQQKPGKAPKLLIYDTYRHSSGVPSRFSGSGSGTEFTLTISSLQPDDFATYYCFQGSGYPFTFGGGTKVEIK",0.00025 s⁻¹,735000 M⁻¹ s⁻¹
"AFFF(1) IgG (antibody, V domains shown, IgG1/kappa) VH: QVTLRESGPALVKPTQTLTLTCTFSGFSLSTAGMSVGWIRQPPGKALEWLADIWWDDKKDYNPSLKSRLTISKDTSKNQVVLKVTNMDPADTATYYCARSMITNFYFDVWGQGTTVTVSS VL: DIQMTQSPSTLSASVGDRVTITCSASSSVGYMHWYQQKPGKAPKLLIYDTFKLASGVPSRFSGSGSGTEFTLTISSLQPDDFATYYCFQGSFYPFTFGGGTKVEIKR",0.000274 s⁻¹ and 0.000266 s⁻¹ and 0.000206 s⁻¹,108000 M⁻¹ s⁻¹ and 96000 M⁻¹ s⁻¹ and 124000 M⁻¹ s⁻¹
"1X-493L1FR Fab (Fab, V domains shown, also called IX-493L1FR) VH: QVTLRESGPALVKPTQTLTLTCTFSGFSLSTSGMSVGWIRQPPGKALEWLADIWWDDKKDYNPSLKSRLTISKDTSKNQVVLKVTNMDPADTATYYCARSMITNWYFDVWGQGTTVTVSS VL: DIQMTQSPSTLSASVGDRVTITCSASSSVGYMHWYQQKPGKAPKLLIYDTSKLASGVPSRFSGSGSGTEFTLTISSLQPDDFATYYCFQGSGYPFTFGGGTKVEIK",0.00065 s⁻¹,185000 M⁻¹ s⁻¹
"AFFF(1) Fab (Fab, V domains shown, Fab; also called AHH(1)) VH: QVTLRESGPALVKPTQTLTLTCTFSGFSLSTAGMSVGWIRQPPGKALEWLADIWWDDKKDYNPSLKSRLTISKDTSKNQVVLKVTNMDPADTATYYCARSMITNFYFDVWGQGTTVTVSS VL: DIQMTQSPSTLSASVGDRVTITCSASSSVGYMHWYQQKPGKAPKLLIYDTFKLASGVPSRFSGSGSGTEFTLTISSLQPDDFATYYCFQGSFYPFTFGGGTKVEIK",0.000245 s⁻¹ and 0.000446 s⁻¹ and 0.000268 s⁻¹,212000 M⁻¹ s⁻¹ and 156000 M⁻¹ s⁻¹ and 186000 M⁻¹ s⁻¹
